According to PMC9482650, “Quantitative fragmentomics allow affinity mapping of interactomes” (Nature Communications, 2022):

T1: APBA1_2, Q02410
T1 sequence (Q02410 742-832, limits assumed, looked up): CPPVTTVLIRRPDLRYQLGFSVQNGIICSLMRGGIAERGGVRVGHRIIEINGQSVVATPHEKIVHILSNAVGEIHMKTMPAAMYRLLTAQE

T2: APBA2_1, Q99767
T2 sequence (Q99767 563-664, limits assumed, looked up): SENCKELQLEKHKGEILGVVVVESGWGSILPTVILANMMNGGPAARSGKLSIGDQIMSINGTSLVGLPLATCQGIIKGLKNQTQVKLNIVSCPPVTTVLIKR

T3: ARHGEF11, O15085
T3 sequence (O15085 42-136, limits assumed, looked up): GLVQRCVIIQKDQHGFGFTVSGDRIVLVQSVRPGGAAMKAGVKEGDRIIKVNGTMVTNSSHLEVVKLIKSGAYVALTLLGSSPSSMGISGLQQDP

T4: DVL3, Q92997
T4 sequence (Q92997 244-331, limits assumed, looked up): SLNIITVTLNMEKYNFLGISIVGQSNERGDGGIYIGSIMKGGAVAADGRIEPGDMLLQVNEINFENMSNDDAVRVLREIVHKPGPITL

T5: GRIP1_7, Q9Y3R0
T5 sequence (Q9Y3R0 999-1096, limits assumed, looked up): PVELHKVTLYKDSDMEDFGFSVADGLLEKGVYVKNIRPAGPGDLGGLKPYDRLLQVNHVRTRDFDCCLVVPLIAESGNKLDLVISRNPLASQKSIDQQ

T6: HTRA4, P83105
T6 sequence (P83105 378-476, limits assumed, looked up): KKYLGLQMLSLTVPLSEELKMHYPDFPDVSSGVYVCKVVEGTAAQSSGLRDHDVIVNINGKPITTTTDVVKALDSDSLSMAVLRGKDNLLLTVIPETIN

T7: LNX2_2, Q8N448
T7 sequence (Q8N448 334-432, limits assumed, looked up): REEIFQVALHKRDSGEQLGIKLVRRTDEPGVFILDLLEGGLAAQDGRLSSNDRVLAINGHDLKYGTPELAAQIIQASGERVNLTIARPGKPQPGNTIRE

T8: MPDZ_12, O75970
T8 sequence (O75970 1857-1958, limits assumed, looked up): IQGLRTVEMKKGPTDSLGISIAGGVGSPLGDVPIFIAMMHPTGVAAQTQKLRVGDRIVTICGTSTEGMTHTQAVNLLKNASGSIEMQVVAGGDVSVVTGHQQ

T9: MPP2, Q14168
T9 sequence (Q14168 180-250, limits assumed, looked up): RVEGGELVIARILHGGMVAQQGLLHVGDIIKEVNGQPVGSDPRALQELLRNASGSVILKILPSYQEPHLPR

T10: MPP7, Q5T2T1
T10 sequence (Q5T2T1 134-230, limits assumed, looked up): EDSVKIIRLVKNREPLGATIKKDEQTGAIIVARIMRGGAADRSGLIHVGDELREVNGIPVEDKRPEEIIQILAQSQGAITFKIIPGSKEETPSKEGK

T11: NHERF3_3, Q5T2W1
T11 sequence (Q5T2W1 238-333, limits assumed, looked up): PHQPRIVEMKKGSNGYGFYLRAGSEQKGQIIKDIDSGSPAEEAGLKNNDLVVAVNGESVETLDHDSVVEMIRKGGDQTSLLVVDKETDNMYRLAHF

T12: PDZD7_3, Q9H5P4
T12 sequence (Q9H5P4 857-944, limits assumed, looked up): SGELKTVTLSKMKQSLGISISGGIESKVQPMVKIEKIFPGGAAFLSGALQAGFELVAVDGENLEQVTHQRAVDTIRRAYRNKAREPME

T13: SNTG1, Q9NSN8
T13 sequence (Q9NSN8 52-150, limits assumed, looked up): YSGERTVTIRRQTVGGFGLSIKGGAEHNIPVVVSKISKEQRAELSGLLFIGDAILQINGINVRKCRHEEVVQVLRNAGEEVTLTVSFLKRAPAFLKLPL

T14: TIAM2, Q8IVF5
T14 sequence (Q8IVF5 885-986, limits assumed, looked up): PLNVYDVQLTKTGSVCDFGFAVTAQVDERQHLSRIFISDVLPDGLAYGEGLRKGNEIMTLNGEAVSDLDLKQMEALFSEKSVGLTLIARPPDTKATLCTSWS

B1: CES3, Q6UWW8 (peptide)
chain: QKNRKAQEDL
B2: TMEM151B, Q8IW70 (peptide)
chain: RHGSCVETSL
B3: ZNF831, Q5JPB2 (peptide)
chain: DDEDRLVIEI

Each binder was assayed against T1, APBA1_2, Q02410 (assay: holdup assay). Settings: plain residues with an end cap or a label only (N-terminal biotin on a linker: ado-ado).
Parameters: key: below the threshold = too weak to quantify, mostly under pKd 3.1 to 4

Row | pKd | Binder
1 | below the threshold | B1
2 | 3.97 | B2
3 | below the threshold | B3

What follows are binders tested against T2, APBA2_1, Q99767 (assay: holdup assay). Settings: plain residues with an end cap or a label only (N-terminal biotin on a linker: ado-ado).
Parameters: key: below the threshold = too weak to quantify, mostly under pKd 3.1 to 4

Row | pKd | Binder
4 | below the threshold | B1
5 | below the threshold | B2
6 | below the threshold | B3

Each binder was assayed against T3, ARHGEF11, O15085 (assay: holdup assay). Settings: plain residues with an end cap or a label only (N-terminal biotin on a linker: ado-ado).
Parameters: key: below the threshold = too weak to quantify, mostly under pKd 3.1 to 4

Row | pKd | Binder
7 | below the threshold | B1
8 | 4.41 | B2
9 | 4.07 | B3

These binders were tested against ARHGEF12, Q9NZN5-2 (assay: holdup assay). Settings: plain residues with an end cap or a label only (N-terminal biotin on a linker: ado-ado).
Parameters: key: below the threshold = too weak to quantify, mostly under pKd 3.1 to 4

ARHGEF12, Q9NZN5-2, sequence (Q9NZN5 other isoform, or with tags, fused parts or gaps): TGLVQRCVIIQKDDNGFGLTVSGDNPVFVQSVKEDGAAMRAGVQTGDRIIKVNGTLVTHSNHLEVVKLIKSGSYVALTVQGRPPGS

Row | pKd | Binder
10 | below the threshold | B1
11 | 5.07 | B2
12 | 3.53 | B3

What follows are binders tested against DLG5_1, Q8TDM6 (assay: holdup assay). Settings: plain residues with an end cap or a label only (N-terminal biotin on a linker: ado-ado).
Parameters: key: below the threshold = too weak to quantify, mostly under pKd 3.1 to 4

DLG5_1, Q8TDM6, sequence (Q8TDM6 617-713): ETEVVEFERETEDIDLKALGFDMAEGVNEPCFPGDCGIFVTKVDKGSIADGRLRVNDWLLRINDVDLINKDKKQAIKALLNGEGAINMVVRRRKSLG

Row | pKd | Binder
13 | below the threshold | B1
14 | below the threshold | B2
15 | below the threshold | B3

These binders were tested against T4, DVL3, Q92997 (assay: holdup assay). Settings: plain residues with an end cap or a label only (N-terminal biotin on a linker: ado-ado).
Parameters: key: below the threshold = too weak to quantify, mostly under pKd 3.1 to 4

Row | pKd | Binder
16 | below the threshold | B1
17 | below the threshold | B2
18 | below the threshold | B3

Each binder was assayed against GOPC, Q9HD26 (assay: holdup assay). Settings: plain residues with an end cap or a label only (N-terminal biotin on a linker: ado-ado).
Parameters: key: below the threshold = too weak to quantify, mostly under pKd 3.1 to 4

Row | pKd | Binder
19 | below the threshold | B1
20 | 4.41 | B2
21 | below the threshold | B3

Each binder was assayed against T5, GRIP1_7, Q9Y3R0 (assay: holdup assay). Settings: plain residues with an end cap or a label only (N-terminal biotin on a linker: ado-ado).
Parameters: key: below the threshold = too weak to quantify, mostly under pKd 3.1 to 4

Row | pKd | Binder
22 | below the threshold | B1
23 | below the threshold | B2
24 | below the threshold | B3

The binders below were run against GRIP2_3, Q9C0E4 (assay: holdup assay). Settings: plain residues with an end cap or a label only (N-terminal biotin on a linker: ado-ado).
Parameters: key: below the threshold = too weak to quantify, mostly under pKd 3.1 to 4

GRIP2_3, Q9C0E4, sequence (Q9C0E4 238-339): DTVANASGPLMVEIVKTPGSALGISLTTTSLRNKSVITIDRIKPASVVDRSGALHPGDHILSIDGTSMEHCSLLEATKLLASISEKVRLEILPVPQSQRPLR

Row | pKd | Binder
25 | below the threshold | B1
26 | below the threshold | B2
27 | below the threshold | B3

These binders were tested against HTRA2, O43464 (assay: holdup assay). Settings: plain residues with an end cap or a label only (N-terminal biotin on a linker: ado-ado).
Parameters: key: below the threshold = too weak to quantify, mostly under pKd 3.1 to 4

HTRA2, O43464, sequence (O43464 355-458): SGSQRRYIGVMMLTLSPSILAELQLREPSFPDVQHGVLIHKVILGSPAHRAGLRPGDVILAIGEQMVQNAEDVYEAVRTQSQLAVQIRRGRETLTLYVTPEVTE

Row | pKd | Binder
28 | below the threshold | B1
29 | below the threshold | B2
30 | below the threshold | B3

The binders below were run against T6, HTRA4, P83105 (assay: holdup assay). Settings: plain residues with an end cap or a label only (N-terminal biotin on a linker: ado-ado).
Parameters: key: below the threshold = too weak to quantify, mostly under pKd 3.1 to 4

Row | pKd | Binder
31 | below the threshold | B1
32 | below the threshold | B2
33 | 4.97 | B3

The binders below were run against Inadl_3, Q8NI35 (assay: holdup assay). Settings: plain residues with an end cap or a label only (N-terminal biotin on a linker: ado-ado).
Parameters: key: below the threshold = too weak to quantify, mostly under pKd 3.1 to 4

Inadl_3, Q8NI35, sequence (Q8NI35 359-469): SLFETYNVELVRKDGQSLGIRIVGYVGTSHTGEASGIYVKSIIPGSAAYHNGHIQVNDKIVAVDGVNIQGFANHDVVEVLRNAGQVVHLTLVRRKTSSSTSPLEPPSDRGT

Row | pKd | Binder
34 | below the threshold | B1
35 | 3.59 | B2
36 | 4.8 | B3

Each binder was assayed against LIMK2, P53671 (assay: holdup assay). Settings: plain residues with an end cap or a label only (N-terminal biotin on a linker: ado-ado).
Parameters: key: below the threshold = too weak to quantify, mostly under pKd 3.1 to 4

LIMK2, P53671, sequence (P53671 143-248): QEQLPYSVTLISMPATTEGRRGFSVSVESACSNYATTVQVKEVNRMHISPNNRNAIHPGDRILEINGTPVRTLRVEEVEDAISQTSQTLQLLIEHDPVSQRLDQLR

Row | pKd | Binder
37 | below the threshold | B1
38 | below the threshold | B2
39 | below the threshold | B3

These binders were tested against T7, LNX2_2, Q8N448 (assay: holdup assay). Settings: plain residues with an end cap or a label only (N-terminal biotin on a linker: ado-ado).
Parameters: key: below the threshold = too weak to quantify, mostly under pKd 3.1 to 4

Row | pKd | Binder
40 | below the threshold | B1
41 | below the threshold | B2
42 | 4.76 | B3

The binders below were run against MAST2, Q6P0Q8 (assay: holdup assay). Settings: plain residues with an end cap or a label only (N-terminal biotin on a linker: ado-ado).
Parameters: key: below the threshold = too weak to quantify, mostly under pKd 3.1 to 4

MAST2, Q6P0Q8, sequence (Q6P0Q8 1099-1202): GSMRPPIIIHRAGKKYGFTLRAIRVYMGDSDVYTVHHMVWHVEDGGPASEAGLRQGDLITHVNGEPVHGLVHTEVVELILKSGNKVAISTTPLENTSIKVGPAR

Row | pKd | Binder
43 | below the threshold | B1
44 | 5.64 | B2
45 | 4.08 | B3

The binders below were run against T8, MPDZ_12, O75970 (assay: holdup assay). Settings: plain residues with an end cap or a label only (N-terminal biotin on a linker: ado-ado).
Parameters: key: below the threshold = too weak to quantify, mostly under pKd 3.1 to 4

Row | pKd | Binder
46 | below the threshold | B1
47 | below the threshold | B2
48 | below the threshold | B3

Each binder was assayed against T9, MPP2, Q14168 (assay: holdup assay). Settings: plain residues with an end cap or a label only (N-terminal biotin on a linker: ado-ado).
Parameters: key: below the threshold = too weak to quantify, mostly under pKd 3.1 to 4

Row | pKd | Binder
49 | below the threshold | B1
50 | below the threshold | B2
51 | below the threshold | B3

Each binder was assayed against T10, MPP7, Q5T2T1 (assay: holdup assay). Settings: plain residues with an end cap or a label only (N-terminal biotin on a linker: ado-ado).
Parameters: key: below the threshold = too weak to quantify, mostly under pKd 3.1 to 4

Row | pKd | Binder
52 | 3.61 | B1
53 | below the threshold | B2
54 | 3.64 | B3

The binders below were run against T11, NHERF3_3, Q5T2W1 (assay: holdup assay). Settings: plain residues with an end cap or a label only (N-terminal biotin on a linker: ado-ado).
Parameters: key: below the threshold = too weak to quantify, mostly under pKd 3.1 to 4

Row | pKd | Binder
55 | below the threshold | B1
56 | below the threshold | B2
57 | below the threshold | B3

What follows are binders tested against T12, PDZD7_3, Q9H5P4 (assay: holdup assay). Settings: plain residues with an end cap or a label only (N-terminal biotin on a linker: ado-ado).
Parameters: key: below the threshold = too weak to quantify, mostly under pKd 3.1 to 4

Row | pKd | Binder
58 | below the threshold | B1
59 | 4.46 | B2
60 | below the threshold | B3

What follows are binders tested against SCRIB_1, Q14160 (assay: holdup assay). Settings: plain residues with an end cap or a label only (N-terminal biotin on a linker: ado-ado).
Parameters: key: below the threshold = too weak to quantify, mostly under pKd 3.1 to 4

SCRIB_1, Q14160, sequence (Q14160 718-814): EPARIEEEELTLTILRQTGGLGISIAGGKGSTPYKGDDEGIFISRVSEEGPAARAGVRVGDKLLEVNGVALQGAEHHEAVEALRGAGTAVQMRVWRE

Row | pKd | Binder
61 | below the threshold | B1
62 | 5.5 | B2
63 | below the threshold | B3

The binders below were run against T13, SNTG1, Q9NSN8 (assay: holdup assay). Settings: plain residues with an end cap or a label only (N-terminal biotin on a linker: ado-ado).
Parameters: key: below the threshold = too weak to quantify, mostly under pKd 3.1 to 4

Row | pKd | Binder
64 | below the threshold | B1
65 | 4.45 | B2
66 | below the threshold | B3

These binders were tested against T14, TIAM2, Q8IVF5 (assay: holdup assay). Settings: plain residues with an end cap or a label only (N-terminal biotin on a linker: ado-ado).
Parameters: key: below the threshold = too weak to quantify, mostly under pKd 3.1 to 4

Row | pKd | Binder
67 | 4.08 | B1
68 | below the threshold | B2
69 | 3.9 | B3

Each binder was assayed against TJP1_2, Q07157 (assay: holdup assay). Settings: plain residues with an end cap or a label only (N-terminal biotin on a linker: ado-ado).
Parameters: key: below the threshold = too weak to quantify, mostly under pKd 3.1 to 4

TJP1_2, Q07157, sequence (Q07157 181-274): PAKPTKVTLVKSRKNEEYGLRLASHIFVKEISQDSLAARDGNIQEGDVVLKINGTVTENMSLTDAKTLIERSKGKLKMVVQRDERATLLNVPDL

Row | pKd | Binder
70 | below the threshold | B1
71 | below the threshold | B2
72 | below the threshold | B3
